Source: paper PMC11202772

Molecular target: eel luteotropin/chorionic gonadotropin hormone receptor (eel LH/CGR) (eel)

EC50 of cAMP production (HTRF) in CHO-K1 cells transiently expressing eel LH/CGR; ligand 0-1500 ng/mL, 30 min, room temperature | Substance
0.0478 µg/mL | tethered eel LH mutant (tethered rec-eel LH-M) with the eLH/CG β-subunit CTP linker between the β-subunit and the α-subunit (from UniProt P08751 135-169) (ligand)
0.139 µg/mL | wild-type tethered eel luteinizing hormone (tethered rec-eel LH-wt) (ligand)
